Test results from publication PMC10690619 (Frontiers in Microbiology, 2023).

How the values were obtained:
[1] = target: T1, cDPGS (Mf-cDPGS), cyclic 2,3-diphosphoglycerate synthetase (Methanothermus fervidus, UniProt O93732); assay: HPLC-MS detection of product; assay type: biochemical; conditions: 50 mM ATP, 250 mM 2,3-DPG, 50 mM MgCl2, 300 mM KCl, 25 mM Tris-HCl pH 8.0, 65 C, 60 min
T1 construct: gene cpgS; full length, 460 residues, N-terminal His6 tag (pLATE51, E. coli BL21(DE3), codon-optimised gene), homodimer ~100 kDa; apo structure solved from selenomethionine protein

[2] = target: the molecule itself; assay: SEC; calibrated Superdex 200 HiLoad 16/60, 20 mM Tris-HCl pH 7.5, 300 mM KCl, 1.0 mL/min, after Ni2+ affinity
[3] = target: the molecule itself; assay: crystal structure; ligand-free (apo) selenomethionine protein, space group I222, one protomer in the asymmetric unit, 1.7 Å, SAD; oligomeric state analysed with PISA

## O=C(O)[C@H]1COP(=O)(O)OP(=O)(O)O1 [cDPG]
[1]
  HPLC-MS detection of product: The direct production of cDPG was monitored by HPLC–MS

B1: cyclic 2,3-diphosphoglycerate synthetase from Methanothermus fervidus, N-terminally His-tagged (enzyme, UniProt O93732 1-460, looked up)
chain: MGETKKMICLVDGEHYFPVVKDSIEILDDLEHIDVVAVVFIGGTEKLQIEDPKEYSEKLGKPVFFGPDPKKIPYDVIKKCVKKYNADIVMDLSDEPVVDYTKRFRIASIVLKEGAVYQGADFKFEPLTEYDVLEKPSIKIIGTGKRIGKTAVSAYAARVIHKHKYNPCVVAMGRGGPREPEIVEGNKIEITAEYLLEQADKGVHAASDHWEDALMSRILTVGCRRCGGGMLGDTFITNVKRGAEIANKLDSDFVIMEGSGAAIPPVKTNRQIVTVGANQPMININNFFGPFRIGLADLVIITMCEEPMATTEKIKKVEKFIKEINPSANVIPTVFRPKPVGNVEGKKVLFATTAPKVVVGKLVNYLESKYGCDVVGVTPHLSNRPLLRRDLKKYINKADLMLTELKAAAVDVATRVAIEAGLDVVYCDNIPVVIDESYGNIDDAIIEVVEMAIDDFKNNR
notes: cyclic 2,3-diphosphoglycerate synthetase (cDPGS), Methanothermus fervidus; E. coli codon-optimised gene in pLATE51; 460 protein residues in the structures, which hold the entire polypeptide chain (N-terminal domain of 127 amino acids, C-terminal domain residues 136-460); No removal of the His tag is told; also called cDPGS; Mf-cDPGS
[2]
  stoichiometry N: 2

B2: selenomethionine derivative of cyclic 2,3-diphosphoglycerate synthetase from Methanothermus fervidus (enzyme, UniProt O93732 1-460, looked up)
chain: MGETKKMICLVDGEHYFPVVKDSIEILDDLEHIDVVAVVFIGGTEKLQIEDPKEYSEKLGKPVFFGPDPKKIPYDVIKKCVKKYNADIVMDLSDEPVVDYTKRFRIASIVLKEGAVYQGADFKFEPLTEYDVLEKPSIKIIGTGKRIGKTAVSAYAARVIHKHKYNPCVVAMGRGGPREPEIVEGNKIEITAEYLLEQADKGVHAASDHWEDALMSRILTVGCRRCGGGMLGDTFITNVKRGAEIANKLDSDFVIMEGSGAAIPPVKTNRQIVTVGANQPMININNFFGPFRIGLADLVIITMCEEPMATTEKIKKVEKFIKEINPSANVIPTVFRPKPVGNVEGKKVLFATTAPKVVVGKLVNYLESKYGCDVVGVTPHLSNRPLLRRDLKKYINKADLMLTELKAAAVDVATRVAIEAGLDVVYCDNIPVVIDESYGNIDDAIIEVVEMAIDDFKNNR
modifications: selenomethionine in place of methionine
notes: cyclic 2,3-diphosphoglycerate synthetase (cDPGS), Methanothermus fervidus; same construct as m1, made with selenomethionine; 460 protein residues, the entire polypeptide chain seen in the structure; Used for the ligand-free structure (SAD phasing); One protomer in the asymmetric unit; the dimer lies on a crystallographic dyad; also called SeMet cDPGS; apo-cDPGS; source: E. coli, PASM-5052 auto …
[3]
  binding result: binds
